What was measured:
[1] = system: Botrytis cinerea B05.10 isolate; assay: Greenhouse whole plant assay (tomato 'Lanai', disease severity); format: in vivo; conditions: final rating day (rating #3), two runs, three-week-old 'Lanai' tomato plant
Botrytis [2] = assay: Open-air field trial on strawberry (Example 4.1, AUDPC of % disease severity); format: in vivo, Botrytis cinerea; conditions: GS730 100 g ai/ha, FIG. 6
Description: RNAi compositions, each containing a dsRNA comprising a trigger sequence (GS349 or GS730) described herein were evaluated for ability to control botrytis on strawberry in open-air field trials. Non-formulated (dissolved in water) GS349 and GS730 were each tank mixed with water and the standard adjuvant Silwet L-77 0.1% v/v. GS349 was tested at concentrations of 25 grams of active ingredient per hectare (g ai/ha) and 50 g ai/ha and GS730 was tested at a concentration of 100 g ai/ha. Serenade ASO 85 g ai/ha, a standard biological fungicide, was used as a positive control. A second positive control group was treated with alternating applications of the chemical standards Teldor Plus 750 g ai/ha, Signum 600 g ai/ha, and Switch 500 g ai/ha. The trial also included an untreated group as a negative control.
Test compositions and positive controls were sprayed onto strawberry plants in 12 applications. Plants were observed beginning 14 days after the first application and disease progress was assessed by determining the percentage of surface area of fruit that was affected by the disease (% Disease Severity). Disease severity was plotted over the length of the trial observations and area under disease progress curve (AUDPC) was calculated in order to measure the cumulative effect of the various treatments across multiple assessments. Means were separated according to Fisher's LSD, alpha (p)≤0.05.

Botrytis [3] = assay: Open-air field trials on grape (Example 4.2, AUDPC of % disease severity); format: in vivo, Botrytis cinerea; conditions: for Disease compared with the biological standard program of Serenade and JMS Stylet Oil (AUDPC) / Disease caused by Botrytis compared to untreated check (AUDPC): both trials; for Disease caused by Botrytis compared to untreated check (AUDPC): FIGS. 7 and 8; for Disease compared with the chemical program of Miravis Prime and Switch (AUDPC): second trial
Description: RNAi compositions, each containing a dsRNA comprising a trigger sequence (GS730) described herein, were evaluated for ability to control Botrytis on grape in open-air field trials. Non-formulated and formulated compositions were tested. Non-formulated compositions were tank mixed with water and Silwet L-77 0.1% v/v. Formulated samples were formulated with RO water, propylene glycol, a linear alcohol ethoxylate, a lignosulfanate, sodium citrate dihydate, a polyacrylic acid polymer, two biocide compositions, anhydrous citric acid, and an antifoam, all of which are readily commercially available. Non-formulated and formulated GS 730 were each tested at concentrations of 50 g ai/ha and 100 g ai/ha. A standard biological program of Serenade 9.4 I/ha alternating with JMS Sylet Oil 1% v/v was used as a positive control. Chemical standards, Miravis Prime 392 g ai/ha ai and Switch 610 g ai/ha were applied to a second positive control group in alternating applications. An untreated group was used as a negative control
Positive controls were applied to grape plants at bloom, bunch closure, veraison, and 7-10 days before harvest. Test applications were made on the same timing as the positive controls with additional applications seven days after bloom, bunch closure, veraison, and 7-10 days before harvest. Disease state was evaluated over the course of three to four weeks, starting two days after the last application (Slide 3) or 18 days […] the last application. Percent Disease Severity was assessed and AUDPC was calculated in the same manner as noted in Example 4.1.

[4] = non-formulated, 50 and 100 g ai/ha

B1: GS730: dsRNA trigger targeting B. cinerea Bcsec15 (XM_024692064.1); trigger SEQ ID NO 19, RNA 31, reverse complement 43 (nucleic acid, listed as Botrytis cinerea)
sense: UCAACGCAGUCUCCAAAGCUUUGGAUGAAUUCGAUAACCCGGAUGUUAUUCUGCAAACCAAGAAUGUGAUAGCAUUGUUCAUCCAAACAAUGGAGGGUUGGGGAUAUUCAGUUGCCAUAUUAGAUGCUUAUGUGCUUAAGCUUUUCUAUAGAUAUGCUGAUUUGUUAAAACGGAAAUUCAGCACAGAUUUUCAACAGAUUGUGUCUACCGAUGAAUACAUGCCUAUGCCUGUCAAUAGCGAAGAAGACUUUGAUAAAAUCAUUCAAGUCAGUUGGUAUGUUCCGGACAGACCGAAAGAAGAAUACACAUUCCCCGGUGUAUUACCAUUCUCCCAGAUGUACCCAAUGUGCUGUAUAGAUAUCAGAAAUUUCCUGAAUCGAUUCUACUUCAUAAUGGAUGAUCAUUUUCAACAGCCAAACAUUAUUGAUGAGACACUUAAGAAGUCGAUAGAUGAGCUUCUGUCUGAGGAUAUUUGUGA
antisense: UCACAAAUAUCCUCAGACAGAAGCUCAUCUAUCGACUUCUUAAGUGUCUCAUCAAUAAUGUUUGGCUGUUGAAAAUGAUCAUCCAUUAUGAAGUAGAAUCGAUUCAGGAAAUUUCUGAUAUCUAUACAGCACAUUGGGUACAUCUGGGAGAAUGGUAAUACACCGGGGAAUGUGUAUUCUUCUUUCGGUCUGUCCGGAACAUACCAACUGACUUGAAUGAUUUUAUCAAAGUCUUCUUCGCUAUUGACAGGCAUAGGCAUGUAUUCAUCGGUAGACACAAUCUGUUGAAAAUCUGUGCUGAAUUUCCGUUUUAACAAAUCAGCAUAUCUAUAGAAAAGCUUAAGCACAUAAGCAUCUAAUAUGGCAACUGAAUAUCCCCAACCCUCCAUUGUUUGGAUGAACAAUGCUAUCACAUUCUUGGUUUGCAGAAUAACAUCCGGGUUAUCGAAUUCAUCCAAAGCUUUGGAGACUGCGUUGA
[1]; 8 g ai/ha
  % control: 61%
[1]; 25 g ai/ha
  % control: 58%
Botrytis [2]; GS349 25 g ai/ha, Serenade ASO 85 g ai/ha
  Disease control compared with the biological standard, Serenade (AUDPC): not significantly different
Botrytis [2]; non-formulated, Silwet L-77 0.1% v/v, 12 applications, GS349 25 and 50 g ai/ha
  Control of Botrytis vs. the untreated control (AUDPC): significant control
Botrytis [3]; formulated, 100 g ai/ha
  Disease compared with the biological standard program of Serenade and JMS Stylet Oil (AUDPC): not statistically different
  Disease caused by Botrytis compared to untreated check (AUDPC): significantly reduced disease
  Disease compared with the chemical program of Miravis Prime and Switch (AUDPC): comparable
Botrytis [3]; [4]
  Disease compared with the biological standard program of Serenade and JMS Stylet Oil (AUDPC): not statistically different
  Disease caused by Botrytis compared to untreated check (AUDPC): significantly reduced disease
  Disease compared with the chemical program of Miravis Prime and Switch (AUDPC): comparable

Reference: patent US20230189818A1, “RNA-BASED CONTROL OF BOTRYTIS” (priority 2021, published 2023)
